What all share (format): biochemical
The nature of series [1]: Kinetic parameters towards sucrose donor. On the procedure:
Enzyme assays were carried out in a total volume of 2 mL containing pure enzyme (0.073 mg, 0.153 mg and 0.092 mg when using A289P-F290C, A289P-F2901 and A289P-F290L, respectively).
Kinetic studies of AS variants were performed in the presence of sucrose (0-500 mM). At regular time intervals (2-5 min), aliquots (200 μL) were removed, heated (95° C., 2 min) and centrifuged (18000 g, 5 min) All the samples were filtered on a 0.22 μm membrane and analyzed using HPLC material previously described. The initial rate of sucrose consumed, corresponding to the initial rate of fructose released, was expressed in mole of fructose released per minute and per gram of enzyme. The kinetic parameters kcat and Km were calculated using Eadie-Hofstee plot.

The nature of series [2]: Product profile with 146 mM sucrose alone (HPAEC). Particulars: t=24 h. On the procedure:
Comparison of products synthesized by wild-type and AS variants. Reactions were performed in the presence of 146 mM sucrose alone or supplemented with 146 mM acceptor. The purified wild-type or mutated GST/AS were employed at 0.5 U/mL. The reactions were stopped by heating at 95° C. for 5 min. The final mixture was centrifuged at 18 000 g for 10 min, filtered on 0.22 μm membrane and analyzed by HPLC, as previously described.
Soluble and insoluble oligosaccharides produced during the reaction were identified by HPAEC using a Dionex Carbo-Pack PA100 column at 30° C. Before analysis, the insoluble fraction was solubilized in KOH at a final total sugar concentration of 10 g/kg. Mobile phase (150 mM NaOH) was set at 1 mL/min flow rate with a sodium acetate gradient (going from 6 to 500 mM within 120 min). Detection was performed using a Dionex ED40 module with a gold working electrode and an Ag/AgCl pH reference. Note that α-D-GlcpNAc-OAll (acceptor) and its derivatives are not oxidable products and thus are not detectable by HPAEC. Sucrose, glucose, fructose, α-D-GlcpNAc-OAll (acceptor) and its derivatives (glucosylation products) were quantified by HPLC, as previously described

Series [3] in a line: Kinetic parameters towards α-D-GlcpNAc-OAll acceptor. As to conditions: 250 mM for both sucrose and α-D-GlcpNAc-OAll. On the procedure: Enzyme assays were carried out in a total volume of 2 mL containing pure enzyme (0.037 mg, 0.076 mg and 0.046 mg when using A289P-F290C, A289P-F2901 and A289P-F290L, respectively).
The kcat/Km (α-D-GlcpNAc-OAll) value was calculated from the initial rate of formation of desired disaccharide (α-D-Glcp-(1→4)-α-D-GlcpNAc-OAll), corresponding to the initial rate of α-D-GlcpNAc-OAll consumed. As saturation was not achieved with the mutants, efficiency was calculated by linear regression analysis of the velocity versus substrate concentration plot.

The nature of series [4]: HPLC screening of double-mutant libraries for variants able to glucosylate D-GlcpNAc. Particulars: α-D-Glcp-(1→4)-α-D-GlcpNAc (ED) from sucrose and D-GlcpNAc, microplate format.
The nature of series [5]: Enzymatic glucosylation of D-GlcpNAc derivatives: β-D-GlcpNAc-OMe. Particulars: sucrose:acceptor 1:1 (146 mM); estimated according to peak areas. On the procedure:
(§1) The mutant F290K and the ASNPwt were tested on other D-GlcNAc derivatives (α-D-GlcpNAc-OMe, β-D-GlcpNAc-OMe, β-D-GlcpNAc-Oallyl and D-GlcNHTCA) used as potential acceptors. The enzymatic reaction was carried out using sucrose as donor and D-GlcNAc derivative as acceptor in a 1:1 ratio (146 mM)
(§2) Efficiency of the glucosylation reaction was evaluated by HPLC analysis of the acceptor reaction product synthesized a Biorad HPLC Carbohydrate Analysis column (HPX-87K column (300×7.8 mm))
(§3) Percentages of glucosylation rates were estimated according to peak areas as no reference was available.

A short description of series [6]: Enzymatic glucosylation of D-GlcpNAc derivatives: D-GlcNHTCA. As to conditions: sucrose:acceptor 1:1 (146 mM); estimated according to peak areas. The method, then:
as §1, §2, §3

“Also recorded” adds a separate entry of the source. A value given as a limit tells only on which side of the number the result lay.

B1: F290K: single mutant F290K of N. polysaccharea amylosucrase 1G5A (protein)
chain: SPNSQYLKTRILDIYTPEQRAGIEKSEDWRQFSRRMDTHFPKLMNELDSVYGNNEALLPMLEMLLAQAWQSYSQRNSSLKDIDIARENNPDWILSNKQVGGVCYVDLFAGDLKGLKDKIPYFQELGLTYLHLMPLFKCPEGKSDGGYAVSSYRDVNPALGTIGDLREVIAALHEAGISAVVDFIFNHTSNEHEWAQRCAAGDPLFDNFYYIFPDRRMPDQYDRTLREIFPDQHPGGFSQLEDGRWVWTTFNSFQWDLNYSNPWVFRAMAGEMLFLANLGVDILRMDAVAKIWKQMGTSCENLPQAHALIRAFNAVMRIAAPAVFFKSEAIVHPDQVVQYIGQDECQIGYNPLQMALLWNTLATREVNLLHQALTYRHNLPEHTAWVNYVRSHDDIGWTFADEDAAYLGISGYDHRQFLNRFFVNRFDGSFARGVPFQYNPSTGDCRVSGTAAALVGLAQDDPHAVDRIKLLYSIALSTGGLPLIYLGDEVGTLNDDDWSQDSNKSDDSRWAHRPRYNEALYAQRNDPSTAAGQIYQDLRHMIAVRQSNPRFDGGRLVTFNTNNKHIIGYIRNNALLAFGNFSEYPQTVTAHTLQAMPFKAHDLIGGKTVSLNQDLTLQPYQVMWLEIA
With B1, in series [1] (250 mM sucrose), the “V250mM (initial rate of sucrose consumption)” value came out at 110 µmol/min/g. For the same molecule, the “behaviour (at high concentration)” value in series [1] (sucrose donor alone) is on record as “no kinetic saturation; also recorded: linear”. In addition, the “length of maltooligosaccharides synthesized in the absence of acceptor” value in series [2] is reported as not above 20 DP. The “V250mM (initial rate of acceptor consumption)” value in series [3] worked out at 6690 µmol/min/g. Moreover, the results for the “Glusosylation Yield to synthesize ED” value in series [4] (listed as DM4_P2_D12) and in series [4] (listed as DM4_P2_H4) were 41% and 42%, respectively. Moreover, the “glucosylation of acceptor β-D-GlcpNAc-OMe” value in series [5] is on record as 65-70%. Besides, the “glucosylation of acceptor D-GlcNHTCA” value in series [6] is more than 95%.
